The target of this test is H5N1 A/Vietnam/1203/2004 hemagglutinin, trypsin-cleaved (HA1/HA2), as crystallised with JNJ4796 (influenza A virus H5N1 A/Vietnam/1203/2004) (UniProt Q5EP31). As to the kind of experiment: crystal structure.

For orientation: stoichiometry N means a count of units in the complex or per binding partner. The substance “H5N1 A/Vietnam/1203/2004 hemagglutinin, trypsin-cleaved (HA1/HA2), as crystallised with JNJ4796 (from UniProt Q5EP31 1-568; Q5EP31 1-568) (natural protein)” showed a stoichiometry N of 3.

Values taken from PMC6457909 (Science (New York, N.Y.), 2019).
